Test results published in article PMC2818375.

Target: M2 muscarinic receptor fused to CFP (M2R-CFP) (UniProt P08172)
Experiment: FRET or BRET

UniProt P08172, sequence (P08172 whole entry, the tested form may be a part): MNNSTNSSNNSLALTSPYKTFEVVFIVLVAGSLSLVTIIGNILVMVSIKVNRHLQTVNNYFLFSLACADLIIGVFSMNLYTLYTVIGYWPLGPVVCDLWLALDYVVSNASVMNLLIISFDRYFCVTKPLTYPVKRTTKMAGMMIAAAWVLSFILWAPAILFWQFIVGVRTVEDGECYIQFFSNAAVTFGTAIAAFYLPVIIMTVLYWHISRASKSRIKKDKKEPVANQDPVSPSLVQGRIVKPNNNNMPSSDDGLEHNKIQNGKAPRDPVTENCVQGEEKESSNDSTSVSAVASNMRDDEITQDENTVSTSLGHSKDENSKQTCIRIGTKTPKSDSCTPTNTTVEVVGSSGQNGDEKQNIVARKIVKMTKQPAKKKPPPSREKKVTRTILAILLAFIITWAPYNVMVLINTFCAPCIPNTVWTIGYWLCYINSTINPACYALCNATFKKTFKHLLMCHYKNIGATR

%FRET: 6 %FRET
Substance: GBR1R2-YFP chimera (N-terminal and transmembrane domains of GBR1, C-terminal domain of GBR2) (receptor)
